From the supplement of paper PMC10567573

B1: ZNF449 (parent)
chain: QLTGHQRIHSGEEPHKCPECGKRF

Variants of: B1
Assay: protein stability index of a GFP-peptide fusion (GPS, HEK-293T) (PSI 1-6); higher = more stable
Conditions: c terminus: a fixed tail appended
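Note: lentivirally expressed fusions sorted by FACS into six bins by GFP to DsRed ratio, PSI derived from sequencing read proportions per bin multiplied by bin number.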

Variant | protein stability index
E19S | 3.62
E19V | 4.53
E19T | 4.03
E19Q | 3.23
E19K | 3.33
E19W | 3.61
E19P | 4.23
E19R | 3.15
E19D | 3.4
E19N | 4.01
E19H | 4.12
E19C | 2
E19L | 3.16
P14V | 4.19
P14Q | 4.75
P14M | 4.05
P14Y | 4.65
P14W | 4.5
P14K | 3.98
P14E | 4.09
P14D | 4.84
P14A | 4.33
P14S | 4.88
P14F | 4.38

Variant | protein stability index
E13F | 3.09
E13A | 4.21
E13R | 3.54
E13I | 3.97
E13G | 4.09
E13V | 3.33
E13Y | 3.15
E13T | 3.39
E13C | 4.11
E13H | 3.62
E13L | 2.85
E13Q | 3.63
E13D | 4.46
E13N | 3.42
E13M | 3.57
I8V | 3.63
I8Q | 4.23
I8G | 4.59
I8Y | 4.53
I8D | 4.71
I8F | 3.96
I8E | 4.5
I8T | 4.42
I8R | 3.75

Variant | protein stability index
I8K | 3.63
I8L | 3.47
I8A | 4.54
I8M | 4.67
I8C | 4.75
I8W | 4.27
I8H | 3.17
I8S | 4.51
E12D | 4.15
E12W | 3.99
E12S | 3.96
E12V | 4.17
E12N | 4.21
E12H | 4.05
E12I | 3.63
E12K | 3.43
E12P | 3.48
E12G | 3.99
E12F | 2.54
E12C | 3.35
E12A | 5.14
E12T | 3.43
E12L | 4.05
E12Y | 3.41

Variant | protein stability index
E12M | 3.73
C17S | 4.43
C17P | 4.71
C17W | 3.92
C17T | 3.98
C17D | 5.48
C17I | 4.4
C17A | 4.4
C17Q | 4.38
C17V | 4.76
C17E | 4.89
C17K | 5.14
C17L | 4.58
C17N | 4.3
C17H | 4.17
C17Y | 4.26
K16Q | 4.3
K16S | 5.11
K16C | 3.84
K16Y | 3.61
K16F | 3.48
K16R | 3.41
K16T | 4.43
K16M | 3.94

Variant | protein stability index
K16N | 4.54
K16G | 3.97
K16D | 4.82
K16I | 4.48
K16H | 5
K16L | 4.48
K16A | 4.36
F24G | 4.7
F24N | 4.4
F24M | 4.13
F24C | 5.12
F24T | 4.83
F24I | 3.65
F24A | 5.07
F24E | 4.88
F24L | 4.64
R23L | 4.74
R23E | 5.37
R23Q | 3.44
R23A | 4.91
R23G | 4.32
R23C | 3.93
R23F | 3.98
R23N | 3.95

Variant | protein stability index
R23T | 4.52
R23V | 4.72
R23D | 4.99
G21T | 4.47
G21I | 4.34
G21L | 4.6
G21Q | 4.47
G21D | 4.36
G21E | 4.87
G21Y | 3.6
G21N | 4.47
G21A | 4.21
G21C | 3.77
G21V | 4.49
G21P | 4.7
G21W | 3.73
G21F | 4.19
H15M | 3.68
H15E | 4.28
H15L | 3.65
H15P | 3.94
H15A | 4.68
H15F | 4.22
H15S | 4.06

Variant | protein stability index
H15C | 5.22
H9S | 4.12
H9N | 4.13
H9W | 3.34
H9M | 3.59
H9A | 3.57
H9L | 3.98
H9T | 3.71
H9P | 4.28
H9G | 3.52
H9I | 3.8
H9F | 3.78
H9E | 4.61
H9C | 4.02
H9V | 4.48
H9D | 4.9
G11D | 4.5
G11T | 3.96
G11P | 4.25
G11I | 3.52
G11N | 3.86
G11S | 4.17
G11E | 4.75
G11V | 3.64

Variant | protein stability index
G11M | 3.21
G11C | 4.88
G11W | 3.76
G11Q | 4.01
G11Y | 3.87
G11K | 4.09
G11F | 3.77
G11H | 4.23
L2S | 4.6
L2H | 4.58
L2F | 3.89
L2W | 4.53
L2A | 4.57
L2D | 5.01
L2R | 4.33
L2G | 4.77
L2N | 4.59
L2K | 4.8
L2C | 5.34
H5M | 3.67
H5S | 3.41
H5Y | 2.92
H5C | 4.86
H5W | 2.89

Variant | protein stability index
H5Q | 3.65
H5V | 3.56
H5A | 3.17
H5L | 3.45
H5T | 4.08
H5R | 4.03
H5I | 4.18
H5D | 4.38
H5N | 3.73
H5K | 4.46
Q6L | 3.83
Q6C | 4.23
Q6F | 2.85
Q6N | 3.77
Q6T | 3.84
Q6P | 4.04
Q6D | 4.77
Q6S | 4.24
Q6K | 3.43
Q6G | 3.44
Q6E | 3.77
Q6R | 2.88
Q6M | 3.68
Q6V | 3.27

Variant | protein stability index
Q6Y | 3.97
Q6H | 4.16
S10K | 3.87
S10C | 4.11
S10A | 4.01
S10F | 4.12
S10H | 4.24
S10N | 3.85
S10Q | 3.91
S10L | 4.12
S10M | 3.36
S10R | 3.55
S10E | 4.48
S10Y | 3.45
C20Q | 4.79
C20K | 4.99
C20Y | 4.67
C20M | 3.82
C20G | 4.49
C20F | 4.39
C20R | 5.4
C20I | 4.36
C20H | 4.46
C20D | 5.03

Variant | protein stability index
C20L | 4.05
C20N | 4.49
C20P | 4.61
C20T | 4.87
C20V | 3.71
Q1H | 3.69
Q1G | 4.83
Q1C | 4.74
Q1M | 2.5
Q1L | 3.84
Q1R | 3.87
Q1A | 4.5
Q1N | 4.09
Q1E | 3.42
Q1Y | 2.71
Q1S | 4.72
Q1F | 2.09
Q1V | 3.76
Q1K | 3.61
Q1P | 3.96
Q1D | 3.45
Q1I | 3.3
P18V | 4.55
P18C | 3.74

Variant | protein stability index
P18I | 3.88
P18E | 4.17
P18D | 5.02
P18M | 4.14
P18H | 3.61
P18W | 3.4
P18Q | 4.02
P18T | 3.98
P18Y | 3.64
P18N | 4.3
P18K | 4.15
P18S | 4.46
K22F | 4.03
K22T | 4.21
K22Q | 3.85
K22N | 4.16
K22I | 3.73
K22L | 4.29
K22H | 4.3
K22R | 4
K22V | 4.51
K22E | 4.62
K22A | 4.72
K22P | 4.22

Variant | protein stability index
R7F | 3.33
R7H | 4.78
R7P | 4.44
R7E | 4.08
R7G | 4.56
R7K | 4.31
R7Y | 4.14
R7M | 4.43
R7W | 3.36
R7L | 4.7
R7Q | 4.22
R7N | 3.52
R7A | 4.69
R7T | 4.74
R7S | 4.83
R7D | 4.85
R7I | 4.58
T3W | 2.77
T3D | 4.99
T3G | 3.69
T3Q | 3.66
T3I | 2.64
T3F | 4.01
T3N | 2.66

Variant | protein stability index
T3Y | 3.54
T3L | 3.6
T3R | 3.48
T3C | 4.82
T3V | 3.12
T3K | 3.99
G4S | 4.57
G4D | 4.09
G4I | 3.41
G4T | 4.43
G4V | 3.52
G4K | 3.48
G4M | 4.18
G4P | 4.14
G4N | 3.42
G4C | 4.29
G4H | 3.94
G4Q | 4.7
G4R | 3.69
G4W | 2.78
G4E | 4.38
G4A | 4.34
